Data: the RNAGym collection of RNA variant scans (doi:10.7554/elife.90254)

B1: OR4K15 (parent)
chain: GUUAACGGUCAUAGGCCAUGGAAACUAGGAGCACCAUUUCGCUGCCAGUGAAGAAAUGAACAAAGAAAAUCUGGGCCAGGCAGGCAUCAAAAGAAAUAGUCUUGCGCUCAACCAGAAAGUCUGUAAUCAUUUUAAGGGUA

Variants of: B1
Test: self-cleavage, relative activity (ratio to wild type); higher = more cleavage; in vitro, sequencing; the parent is a self-cleaving ribozyme

Variant | self-cleavage
A27G U139A | 1.27
A27U A91G | 1.19
A24G G58U | 1.92
U26C U132A | 0.61
A27U A125G | 0.84
U26C A134G | 1.05
U26C U103A | 0.24
U26C U103C | 0.69
U26C A92G | 1.45
U26A U102C | 1.69
C25U A47G | 1.76
A27U G83A | 1.31
A24U A78C | 0.29
A27G U102A | 0.63
A27G U130C | 0.63
U26C A36G | 1.47
G28A U131C | 0.99
C25G A118G | 0.35
A24G A94G | 1.47
A27G A36G | 1.26
C25U A55G | 1.72
C25U A135G | 1.44
A24U A55G | 1.53
U26C A126U | 1.29

Variant | self-cleavage
U26C U43C | 0.54
A27C A78G | 0.21
A24G A91G | 0.65
A24G C105A | 0.02
G28C | 0.93
G28A | 1.09
G28U | 0.74
G28U A111U | 0.3
A27G A78G | 0.3
U26A U72A | 0.28
U26G A62G | 1.02
A24G U127C | 0.74
G28A U130C | 1.2
G28A A86U | 1.88
A27U A86G | 1.43
U26C U100C | 1.45
A24G A140U | 0.89
A24G A140G | 1.4
G28A A110G | 0.17
A24G U131G | 1.61
A24G U131C | 1.17
U26C A55G | 0.31
A27U U102C | 2.12
U26G A66G | 1.09

Variant | self-cleavage
A27C A116U | 0.23
G28U A68G | 1.22
A27G A69G | 0.62
A27G A92G | 1.48
A27G A92U | 1.07
A24U U26C | 2.46
A24U U26A | 1.57
A24G U97C | 0.1
A27G A111G | 0.03
U26C A96G | 1.5
C25U A66C | 1.33
A24G U49A | 1.37
A24G U49G | 0.9
A24G U49C | 1.37
C25A A56G | 1.41
A24G U122G | 2.31
A24G U139A | 1.53
A24G U139G | 1.86
A24G U139C | 0.99
C25U U70C | 0.35
U26A U132C | 0.9
A27U A92G | 1.83
A27U G99A | 0.6
A24G A90C | 0.33

Variant | self-cleavage
A24G A90U | 1.65
A24U A82G | 0.41
A27U A52G | 1.91
U26C U120C | 0.85
G29A A30G | 1.16
A24G U72G | 0.26
A24G U72A | 0.28
A27G U39A | 1.42
A27G U39C | 1.14
A27U U39A | 1.49
A27U U39C | 0.93
A24G C128U | 0.76
C25U U132C | 1.36
A27U U43G | 1.64
G28A A55C | 1.7
A24U A91G | 1.09
A27G G53C | 1.59
A27U A59G | 0.92
A27G A33U | 1.16
A27G A33G | 0.96
A24G C81U | 0.64
A24G C81G | 0.21
A24G C46U | 0.73
C25U A86C | 0.72

Variant | self-cleavage
A24G A86C | 0.43
A24G A86U | 1.44
A24G C109A | 0.3
A24G C109U | 0.46
G28A A78U | 0.18
A27U U49C | 2.12
U26C A82U | 0.28
C25U U72A | 0.28
A24G G65U | 1.3
U26A A96G | 1.39
A27U A68G | 1.61
U26A A91G | 1.38
A24G A129G | 1.15
A24G U39C | 1.35
A27G A67G | 1.25
A27G U72C | 0.38
C25G A27U | 1.45
U26A G44C | 0.71
A24U A98G | 0.45
A24U U57C | 0.73
A27G A47U | 0.95
A24G G84C | 0.53
A24U A90G | 1.63
G28A A129G | 0.99

Variant | self-cleavage
U26C A90G | 1.11
U26C G136A | 2.02
C25U A114G | 0.37
U26C A118C | 0.51
U26A A51G | 1.15
U26C U131C | 1.04
U26A G115U | 0.13
U26C A114U | 0.07
A27C G75C | 0.12
A24G U26A | 0.98
U26A C34U | 1.99
A27G U87A | 1.39
A27G U87C | 1.02
A27C U87A | 1.13
U26C A62U | 1.84
A27G A51G | 1.3
G28C A64G | 0.77
A27U U120A | 1.85
U26A A59U | 1.22
G28A U39C | 2.09
G28A U97C | 0.59
A24G A110G | 0.17
A24G A110C | 0.55
U26A A69G | 1.5

Variant | self-cleavage
U26A C81U | 0.19
G28A A56G | 1.49
A27U A96G | 1.6
U26G A96G | 1.78
U26A A114G | 0.2
A24U A36C | 1.63
C25U A129G | 1.37
A27G U38C | 1.12
A24G U132C | 1.31
A24G U132A | 0.48
A24G A98C | 1.76
G28U A60G | 1.57
U26C G84A | 1.84
C25U G136A | 1.84
A27G A116G | 0.99
C25A U122C | 0.72
A27U A30G | 0.38
A27U A118G | 1.21
U26A A92G | 0.89
A27G A68G | 1.13
A24U U132C | 2.18
A27G U133G | 2.02
U26C A69G | 1.46
